Results: PMC10978878

Legend:
[1] = target: BA.4 spike, recombinant trimeric S-twin-Strep, prefusion stabilized (SARS-CoV-2) (UniProt P0DTC2); test: cryo-EM structure
[2] = target: BA.2.12.1 spike, recombinant trimer that retains the native sequence (SARS-CoV-2) (UniProt P0DTC2); test: cryo-EM structure

Row | Substance | stoichiometry N (chains per oligomer) [1] | stoichiometry N (chains per oligomer) [2]
1 | BA.4 spike, recombinant trimeric S-twin-Strep, prefusion stabilized (from UniProt P0DTC2 28-1147) (natural protein) | 3 | 
2 | BA.2.12.1 spike, recombinant trimer that retains the native sequence (from UniProt P0DTC2) (natural protein) |  | 3
